{"source": "patent US8889408B2", "about": "“Factor taking part in transcription control” (Sony Corporation, priority 2002, dated 2014)", "key": {"retinoic acid receptor": {"system": "retinoic acid receptor", "assay": "RAR reporter CAT analysis in HepG2 cells", "assay_type": "cell-based", "conditions": "pcDNA3-HDART 0, 0.5, 1.0 μg; ATRA 10^−8 M; HepG2 cells", "method": "Since it is shown in the above example that HDART is able to interact with Skip, the functional role of HDART on the transcription route ascribed to a nuclear receptor was analyzed. First, the effect of HDART on the transcription regulation by retinoic acid receptor was analyzed. For this purpose, the CAT analysis was made using a RAR (retinoid acid receptor) reporter plasmid incorporating a thymidine kinase minimum promoter (pTREpal-tata) and CAT gene therein downstream of a retinoid response element.\nMore particularly, pcDNA3-HDART, capable of steadily expressing HDART, and, at the same time, RAR reporter plasmid, were transfected into HepG2 cells by use of Effectene kit (QIAGEN™). It is to be noted that the pcDNA3-HDART expression vector was introduced in different amounts of 0, 0.5 and 1.0 μg, and the amount of DNA in the respective transfections was equalized at 1 μg by adding the appropriate amount of a vacant vector of pcDNA. After the transfection, growth was made in the presence (10^−8 M) or absence of ATRA and the CAT activity was measured. The results of the measurement (FIG. 6) are indicated in terms of values corrected on the basis of the CAT activity obtained after introduction of 1.0 μg of a vacant vector in the absence of ATRA. In addition, the average of the results of three experiments and a standard deviation in terms of an error bar are also shown.\nNext, the influence of the overexpression of N4TPR on the transcription from RAR or a glucocorticoid responsive promoter was checked. It will be noted that this test was made in the same manner as in the reporter analysis set out in Example 4, but using GFP-N4TPR expression vector (0, 0.3 and 0.5 μg)."}, "HDAC6": {"target": "T1, HDAC6 (Homo sapiens, UniProt Q9UBN7)", "T1 construct": "expressed in transfected cells; host or cells: 293 cells", "T1 sequence (Q9UBN7 1-1215)": "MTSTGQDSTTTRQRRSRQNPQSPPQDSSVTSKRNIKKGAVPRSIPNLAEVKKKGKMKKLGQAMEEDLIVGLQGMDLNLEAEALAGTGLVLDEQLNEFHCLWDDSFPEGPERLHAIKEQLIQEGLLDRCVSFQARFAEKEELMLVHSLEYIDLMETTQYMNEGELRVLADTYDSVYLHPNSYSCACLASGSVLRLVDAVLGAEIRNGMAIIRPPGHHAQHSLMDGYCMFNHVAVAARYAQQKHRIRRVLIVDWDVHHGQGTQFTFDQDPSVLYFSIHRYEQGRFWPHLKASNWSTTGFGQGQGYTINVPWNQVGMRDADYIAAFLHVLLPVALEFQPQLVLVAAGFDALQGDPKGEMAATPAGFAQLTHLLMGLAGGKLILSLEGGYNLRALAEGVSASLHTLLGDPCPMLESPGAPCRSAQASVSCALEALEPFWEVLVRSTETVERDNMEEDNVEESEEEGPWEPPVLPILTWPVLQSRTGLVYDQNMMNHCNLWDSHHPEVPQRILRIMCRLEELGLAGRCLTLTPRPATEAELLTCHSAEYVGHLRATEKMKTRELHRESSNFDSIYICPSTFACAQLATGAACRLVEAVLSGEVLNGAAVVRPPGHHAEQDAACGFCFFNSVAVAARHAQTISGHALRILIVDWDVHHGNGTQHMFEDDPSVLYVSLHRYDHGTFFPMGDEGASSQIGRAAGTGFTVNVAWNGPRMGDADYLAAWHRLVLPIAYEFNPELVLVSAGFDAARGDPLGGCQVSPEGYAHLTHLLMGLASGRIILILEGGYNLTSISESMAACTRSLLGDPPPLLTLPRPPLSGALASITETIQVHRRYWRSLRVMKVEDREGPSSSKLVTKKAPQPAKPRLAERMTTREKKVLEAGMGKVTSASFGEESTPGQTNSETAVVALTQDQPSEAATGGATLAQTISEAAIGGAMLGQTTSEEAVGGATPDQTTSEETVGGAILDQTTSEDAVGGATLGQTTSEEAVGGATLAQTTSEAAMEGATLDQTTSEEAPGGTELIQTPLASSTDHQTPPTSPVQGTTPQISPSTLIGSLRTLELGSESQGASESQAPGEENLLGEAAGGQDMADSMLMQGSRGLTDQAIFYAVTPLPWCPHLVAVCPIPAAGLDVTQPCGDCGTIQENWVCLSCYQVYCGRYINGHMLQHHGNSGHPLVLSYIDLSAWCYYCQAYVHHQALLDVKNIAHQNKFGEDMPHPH", "assay": "Immunoprecipitation of GFP-HDART with Flag-HDAC in 293 cells", "assay_type": "binding", "conditions": "co-transfected 293 cells; anti-FLAG immunoprecipitation", "method": "Flag-HDACs expression vectors capable of expressing different types of HDAC (1, 3, 4 or 6) and a GFP-HDART expression vector were, respectively, co-transfected with 293 cells in the same manner as in Example 2, and cell extracts were prepared 24 hours after the transfection. The respective cell extracts were incubated with an anti-Flag antibody, followed by immunoprecipitation. The resulting immunoprecipitate was isolated with SDS-PAGE and an isolated pattern was transferred to a membrane, followed by immunoblotting with use of an anti-Flag antibody or […]. For reference, in order to confirm the expression of GFP-HDART protein in the respective cells, individual samples prior to the immunoprecipitation were similarly developed with SDS-PAGE to conduct immunoblotting with use of an anti-GFP antibody. […] The kinds of HDAC's from the left side of the figure are as follows: lane 1, HDAC1; lane 3, HDAC3; lane 4, HDAC4; and lane 5, HDAC6. It will be noted that lane 2 is for the sample in which GFP-HDART alone was expressed."}}}
{"molecule": "HDART: HDAC associated repressor TPR protein, 855 amino acids, SEQ ID NO: 2; transcription repressing factor, used as fusions or expressed from vector (protein, listed as Homo sapiens) MVVMARLSRPERPDLVFEEEDLPYEEEIMRNQFSVKCWLRYIEFKQGAPKPRLNQLYERALKLLPCSYKLWYRYLKARRAQVKHRCVTDPAYEDVNNCHERAFVFMHKMPRLWLDYCQFLMDQGRVTHTRRTFDRALRALPITQHSRIWPLYLRFLRSHPLPETAVRGYRRFLKLSPESAEEYIEYLKSSDRLDEAAQRLATVVNDERFVSKAGKSNYQLWHELCDLISQNPDKVQSLNVDAIIRGGLTRFTDQLGKLWCSLADYYIRSGHFEKARDVYEEAIRTVMTVRDFTQVFDSYAQFEESMIAAKMETASELGREEEDDVDLELRLARFEQLISRRPLLLNSVLLRQNPHHVHEWHKRVALHQGRPREIINTYTEAVQTVDPFKATGKPHTLWVAFAKFYEDNGQLDDARVILEKATKVNFKQVDDLASVWCQCGELELRHENYDEALRLLRKATALPARRAEYFDGSEPVQNRVYKSLKVWSMLADLEESLGTFQSTKAVYDRILDLRIATPQIVINYAMFLEEHKYFEESFKAYERGISLFKWPNVSDIWSTYLTKFIARYGGRKLERARDLFEQALDGCPPKYAKTLYLLYAQLEEEWGLARHAMAVYERATRAVEPAQQYDMFNIYIKRAAEIYGVTHTRGIYQKAIEVLSDEHAREMCLRFADMECKLGEIDRARAIYSFCSQICDPRTTGAFWQTWKDFEVRHGNEDTIKEMLRIRRSVQATYNTQVNFMASQMLKVSGSATGTVSDLAPGQSGMDDMKLLEQRAEQLAAEAERDQPLRAQSKILFVRSDASREELAELAQQVNPEEIQLGEDEDEDEMDLEPNEVRLEQQSVPAAVFGSLKED", "values": [{"measurement": "ATRA-induced CAT activity", "setting": "retinoic acid receptor", "result": "inhibited by HDART in a concentration dependent manner"}, {"measurement": "interaction with HDAC6", "setting": "HDAC6", "result": "exhibits interaction"}]}
